This assay concerns the target T1, full length human NRP1 on transfected HEK-293 cells (human, UniProt O14786 22-923).
T1 construct: whole, on cells; also called HEK-293 cells transfected with human NRP1
Nature of the assay: immunohistochemistry on transfected HEK-293 cells, antibody at 1 ug/ml; cells with empty vector as negative control. On the procedure:
Immunohistochemistry (IHC) was performed on freshly cut tissue sections following standard procedure. […] The specificity of the anti-NRP1 antibody was assessed using HEK-293 cells transfected with human NRP1 and empty vector as control (see FIGS. 1A and 1B). To assess expression, whole sections were scored semi-quantitatively on a scale of zero (no expression) to three (very strong signal), according to the intensity of chromagen deposition in ≧10% of neoplastic cells or endothelium.

T1 sequence (O14786 22-923): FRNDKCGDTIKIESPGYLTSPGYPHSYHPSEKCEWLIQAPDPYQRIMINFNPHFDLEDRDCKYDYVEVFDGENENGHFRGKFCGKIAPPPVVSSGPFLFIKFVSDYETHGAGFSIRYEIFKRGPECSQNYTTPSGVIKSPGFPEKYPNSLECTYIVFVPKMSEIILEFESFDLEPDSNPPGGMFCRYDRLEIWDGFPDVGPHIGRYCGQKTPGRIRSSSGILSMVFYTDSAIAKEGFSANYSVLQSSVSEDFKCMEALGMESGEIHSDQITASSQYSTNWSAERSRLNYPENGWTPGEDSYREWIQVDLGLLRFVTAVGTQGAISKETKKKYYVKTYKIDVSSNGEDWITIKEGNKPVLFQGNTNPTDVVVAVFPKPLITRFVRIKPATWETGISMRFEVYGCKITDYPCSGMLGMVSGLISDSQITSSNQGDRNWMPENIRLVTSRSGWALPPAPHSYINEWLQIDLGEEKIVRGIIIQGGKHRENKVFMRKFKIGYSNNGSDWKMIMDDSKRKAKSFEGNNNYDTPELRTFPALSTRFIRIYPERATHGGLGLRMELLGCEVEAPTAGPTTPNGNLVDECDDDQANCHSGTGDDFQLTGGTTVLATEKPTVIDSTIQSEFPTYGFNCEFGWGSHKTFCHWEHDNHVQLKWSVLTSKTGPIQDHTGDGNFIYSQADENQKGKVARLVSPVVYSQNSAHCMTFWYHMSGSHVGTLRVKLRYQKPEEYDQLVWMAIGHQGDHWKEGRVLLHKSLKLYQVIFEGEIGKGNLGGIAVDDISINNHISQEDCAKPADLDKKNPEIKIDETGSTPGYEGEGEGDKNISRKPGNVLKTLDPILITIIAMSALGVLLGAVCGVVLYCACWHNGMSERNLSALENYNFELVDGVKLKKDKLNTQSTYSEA

B1: monoclonal anti-NRP1 antibody 7130 (antibody, V domains shown)
VH: QLVEESGGGLVTPGGTLTLTCTASGFTISNYHMSWVRQAPGKGLEWIGIIYAVSAATWSATWVKGRFTISKTLTTVDLKMTSLTAADTATYFCARVRAPGDSTYYDLWGPGTLVTVSS
VL: AVVMTQTASPVSAVVGGTVTINCQASQTISNNWLSWYQQKPGQPPKLLIYKASILASGVPSRFSGSGSGTEFTLTISGVQCDDAATYYCLYGHYITTSAHNAFGGGTEVVVKG
notes: Rabbit monoclonal antibody from a hybridoma (rabbit immunised with human soluble NRP1)
For the molecule B1, the binding result is listed as “binds”.
